In PMC11197462 (Structure (London, England : 1993), 2023):

Tests used:
Fab favezelimab(mut) = test: SEC
[1] = molecular target: human LAG3, four Ig-like extracellular domains (D1-D4; residues 1-449) (human, UniProt P18627); test: SEC
Sequence of human LAG3, four Ig-like extracellular domains (D1-D4; residues 1-449) (P18627 23-449): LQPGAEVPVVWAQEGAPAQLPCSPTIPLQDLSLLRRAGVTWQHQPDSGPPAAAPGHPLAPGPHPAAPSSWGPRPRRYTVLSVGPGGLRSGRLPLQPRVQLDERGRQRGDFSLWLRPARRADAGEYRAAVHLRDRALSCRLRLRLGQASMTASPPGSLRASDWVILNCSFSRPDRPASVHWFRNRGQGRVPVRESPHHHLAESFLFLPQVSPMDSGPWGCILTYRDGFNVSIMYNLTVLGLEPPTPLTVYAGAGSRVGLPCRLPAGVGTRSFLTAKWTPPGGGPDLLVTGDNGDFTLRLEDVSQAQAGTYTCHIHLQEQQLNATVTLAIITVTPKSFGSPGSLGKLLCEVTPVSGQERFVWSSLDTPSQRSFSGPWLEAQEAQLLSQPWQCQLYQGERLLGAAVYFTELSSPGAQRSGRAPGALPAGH

percent of the protein in the dimer peak (Fab favezelimab(mut)): 85%
stoichiometry N (Fab favezelimab(mut)): 2
stoichiometry N [1]: 2
B1: Fab favezelimab(mut) (Fab, V domains shown)
VH: EVLLLQSGPELVKPGTSVKIPCKASGYTFTDYNVDWVKQRHGKGLEWIGDINPNNGGTIYSQKFKGKATLTVDKSSSTAFMELRSLTSEDTAVYFCARNYRWFGAMDHWGQGTSVTVSS
VL: DIVLTQSPASLAVSPGQRATISCKASQSLDYEGDSDMNWYQQKPGQPPRLLISGASNLESGIPARFSGSGSGTDFTVNIHPVEEEDAATYYCQQSTEDPRTFGGGTKLEIK
